# Results: US20100196347A1, “BONE GRAFTS WITH REDUCED PROTEASE ACTIVITY AND METHODS OF SELECTION AND USE” (priority 2008, published 2010)
# Columns and labels:
# [1] = Binding and release of PDGF from human bone graft (salt elution; ELISA / SEC); type: physicochemical
# Description: FIG. 1 summarizes an exemplary protocol for studying the binding and release of PDGF from bone graft. For some experiments, the amounts were scaled down two or ten times to preserve the bone graft materials. In particular, 100 μl of human bone graft (LifeNet, Inc.) was mixed with 100 μl of PDGF at a concentration of 0.3 mg/mL in 20 mM NaOAc, pH 6.0 for ten minutes. The bone graft consisted of dry particles. The bone graft was freeze-dried before being sold (referred to as freeze-dried bone allograft, or FDBA). Then, 200 μl of NaCl (at various concentrations) in 20 mM NaOAc, pH 6.0 or phosphate buffered saline (PBS) (without NaOAc) was added. The solution was then incubated for either 1 hour or 24 hours. PDGF in solution was separated from insoluble human bone graft by centrifugation at ˜2000×g for 5 minutes at 4° C., and then the amount of rhPDGF-BB released from the matrix was determined by colorimetric ELISA Quantikine assy (R & D Systems, Minneapolis, Minn.) using plates coated with the receptor to human PDGF-BB.
# In particular, PDGF (0.5 ml of 0.3 mg/ml) was incubated with the freeze-dried bone graft (˜0.5 ml) and mixed for 10 minutes, 60 minutes, or overnight at room temperature. Then 1 mL of 1 M NaCl was added as described above for FIG. 1. […] PDGF was separated from the bone graft by centrifugation at 15,334×g for 2 minutes and the supernatant containing PDGF was analyzed by SEC, RPHPLC, ELISA, and non-reducing SDS-PAGE. […] Released PDGF was measured using a standard ELISA assay. […] Briefly, a receptor for human PDGF-BB was coated onto a plate, then PDGF was bound and evaluated with a secondary antibody-HRP conjugate and the chromogen tetramethylbenzidine for detection. […] Alternatively, the concentrations of the rhPDGF-BB in supernatants were determined using the size exclusion HPLC (SEC) on TOSOH Biosep TSK-Gel, 7.8 mm×3 cm HPLC column and TOSOH Biosep TSK-Gel, 6.0 mm×4.0 cm precolumn (Tosoh Bioscience, San Francisco, Calif.) by integration of the elution profile of PDGF and using calibration at 5 different concentrations of standard PDGF as shown in FIG. 4C. […]
# MG-63 cells = assay: MG-63 cell-based bioassay of rhPDGF eluted from FDBA; conditions: eluted from FDBA with NaCl after ten minutes; data not shown
# [2] = Non-reducing SDS-PAGE of rhPDGF-BB eluted from human FDBA; type: physicochemical; conditions: data not shown
# Description: In particular, PDGF (0.5 ml of 0.3 mg/ml) was incubated with the freeze-dried bone graft (˜0.5 ml) and mixed for 10 minutes, 60 minutes, or overnight at room temperature. Then 1 mL of 1 M NaCl was added as described above for FIG. 1. The final NaCl concentration was 667 mM. PDGF was separated from the bone graft by centrifugation at 15,334×g for 2 minutes and the supernatant containing PDGF was analyzed by SEC, RPHPLC, ELISA, and non-reducing SDS-PAGE. […] Released PDGF was measured using a standard ELISA assay. The ELISA assay was performed using Quantikine® Human PDGF-BB Immunoassay from R&D Systems, Inc. according to the manufacturer's protocol (see, for example, world wide web at rndsystems.com/pdf/dbb00.pdf). Briefly, a receptor for human PDGF-BB was coated onto a plate, then PDGF was bound and evaluated with a secondary antibody-HRP conjugate and the chromogen tetramethylbenzidine for detection. […] Alternatively, the concentrations of the rhPDGF-BB in supernatants were determined using the size exclusion HPLC (SEC) on TOSOH Biosep TSK-Gel, 7.8 mm×3 cm HPLC column and TOSOH Biosep TSK-Gel, 6.0 mm×4.0 cm precolumn (Tosoh Bioscience, San Francisco, Calif.) by integration of the elution profile of PDGF and using calibration at 5 different concentrations of standard PDGF as shown in FIG. 4C.
# [3] = PDGF release from washed demineralized bone graft (ELISA); type: physicochemical
# Description: The washes were conducted as follows. The bone graft sample (−0.1 g) was placed in a small plastic tube and then either 1.0 ml of water, saline solution, or elution buffer was added to the sample. The mixture was allowed to sit at room temperature for 5 minutes with occasional gently mixing by hand. At the end of the 5 minutes, the fluid was pulled off the bone graft material using a pipet, and the remaining fluid was removed by compressing the material with a sterile cotton Q-tip applicator. Following this, a solution of 0.3 mg/ml rhPDGF-BB was added to the washed bone graft and samples were removed for quantification of PDGF by ELISA over 60 minutes.
substance,measurement,setting,value
rhPDGF-BB: recombinant human platelet-derived growth factor BB,PDGF release from freeze-dried bone graft with other compounds,[1]; MEM and acetic acid in place of NaCl,release of some PDGF
same,PDGF released from bone graft by salt incubation,"[1]; NaCl up to 1.5 M or PBS, 1 hour or 24 hours, ELISA",significant amount of PDGF was released
same,rhPDGF-BB bound to the bone graft matrix recovered from the bone graft,[1]; mixture of rhPDGF-BB and bone graft washed with a low ionic strength buffer,less than 10%
same,biopotency compared to a control sample of rhPDGF-BB,MG-63 cells,retained its biopotency
same,electrophoretic comparison with control rhPDGF-BB,[2],electrophoretically indistinguishable
same,amount of PDGF released from DM bone graft,[3]; bone graft washed 5 minutes in saline,More PDGF was released
same,amount of PDGF released from DM bone graft at the end of the 60 minute study,[3]; bone graft washed 5 minutes in sterile water,decrease
same,amount of PDGF released from DM bone graft,[3]; bone graft washed in elution buffer,somewhere in the middle between water and saline washes
